{"source": "patent US7901879B2", "about": "“Lactoferrin in the treatment of malignant neoplasms and other hyperproliferative diseases” (Agennix Incorporated, priority 2002, dated 2011)", "molecules": {"B1": {"name": "Recombinant human lactoferrin (protein, UniProt P02788 20-710, looked up)", "Lactotransferrin": "GRRRSVQWCAVSQPEATKCFQWQRNMRKVRGPPVSCIKRDSPIQCIQAIAENRADAVTLDGGFIYEAGLAPYKLRPVAAEVYGTERQPRTHYYAVAVVKKGGSFQLNELQGLKSCHTGLRRTAGWNVPIGTLRPFLNWTGPPEPIEAAVARFFSASCVPGADKGQFPNLCRLCAGTGENKCAFSSQEPYFSYSGAFKCLRDGAGDVAFIRESTVFEDLSDEAERDEYELLCPDNTRKPVDKFKDCHLARVPSHAVVARSVNGKEDAIWNLLRQAQEKFGKDKSPKFQLFGSPSGQKDLLFKDSAIGFSRVPPRIDSGLYLGSGYFTAIQNLRKSEEEVAARRARVVWCAVGEQELRKCNQWSGLSEGSVTCSSASTTEDCIALVLKGEADAMSLDGGYVYTAGKCGLVPVLAENYKSQQSSDPDPNCVDRPVEGYLAVAVVRRSDTSLTWNSVKGKKSCHTAVDRTAGWNIPMGLLFNQTGSCKFDEYFSQSCAPGSDPRSNLCALCIGDEQGENKCVPNSNERYYGYTGAFRCLAENAGDVAFVKDVTVLQNTDGNNNEAWAKDLKLADFALLCLDGKRKPVTEARSCHLAMAPNHAVVSRMDKVERLKQVLLHQQAKFGRNGSDCPDKFCLFQSETKNLLFNDNTECLARLHGKTTYEKYLGPQYVAGITNLKKCSTSPLLEACEFLRK", "notes": "human lactoferrin produced recombinantly"}}, "key": {"[1]": {"system": "murine squamous carcinoma cell line (SCCVII)", "experiment": "SCCVII tumor growth, oral rhLF and/or radiotherapy (Example 9)", "type": "in vivo, immunocompetent C3H mice", "description": "A murine squamous carcinoma cell line (SCCVII) was injected into the floor of mouth through the neck skin of immunocompetent C3H mice (Day 0). […] Tumors were measured in three dimensions with calipers.\nTumor-bearing mice were randomized into six groups receiving rhLF (200 mg/Kg) and/or radiotherapy as described below. RhLF (4 mg; 200 mg/kg) was administered by oral gavage once daily for 8 days on days 5 through 12. Radiotherapy was administered as single dose of 2 Gray given at the beginning (day 5) or at during (day 8) rhLF-therapy. Animals were sacrificed on day 14 post-treatment and the residual tumor masses were measured and processed for later additional analyses."}, "[2]": {"system": "murine squamous carcinoma cell line (SCCVII)", "experiment": "SCCVII floor-of-mouth tumor growth, oral rhLF and/or cisplatin (Example 6)", "type": "in vivo, immunocompetent C3H mice", "conditions": "rhLF alone 200 mg/kg oral once daily days 5-12", "description": "A murine squamous carcinoma cell line (SCCVII) was injected into the floor of the mouth through the neck skin of immunocompetent C3H mice (Day 0). […] Tumors were measured in three dimensions with calipers.\nTumor-bearing mice were randomized into a control group and seven groups receiving rhLF and/or cisplatin. RhLF (4 mg; 200 mg/Kg) was administered once daily by oral gavage for 8 days on days 5 through 12. Cisplatin was administered as a single dose of 5 mg/Kg given intraperitoneally either at the start of rhLF (day 5), in the middle (day 8) or at the end (day 12) of rhLF therapy. Animals were sacrificed on day 12 post-implantation and the residual tumor masses were measured and processed for later additional analyses."}, "[3]": {"system": "IL-18", "experiment": "IL-18 levels in small intestine and serum after oral rhLF or bLF (cytokine ELISA)", "type": "in vivo, mice", "conditions": "for IL-18 Intestinal Extract / IL-18 Serum: 24 h after last dose", "description": "Recombinant human lactoferrin and bovine lactoferrin were orally administered to mice, and the production of IL-18 in the small intestine was measured.\nMice were treated for three days daily with 65 mg/kg/day of rhLF, 300 mg/kg/day of rhLF or 300 mg/kg/day of bLF. For a control, mice were only administered the pharmaceutical carrier. Twenty-four hours following administration of the LF or control for 3 days, animals were weighed and blood and serum were collected. Serum was used for cytokine ELISA assays.\nAlso, at these time points, animals were sacrificed and the small intestinal tissue was removed for further analysis. Small intestinal epithelium was homogenized using a lysis buffer consisting of PBS, 1% Nonidet P-40, 0.5% sodium deoxycholate, and 0.1% sodium dodecyl sulphate containing 10 μg/ml PhenylMetheylsulfonyl fluoride. Homogenate was centrifuged at 15,000 rpm for 10 minutes and the supernatant stored at −80 C. till it was tested for IL-18 levels."}, "[4]": {"system": "metastatic cancer", "experiment": "Oral rhLF in human patients with metastatic cancer, tumor size by CT", "type": "in vivo", "description": "Recombinant human lactoferrin was orally administered to human patients with a range of metastatic cancer types that had failed standard chemotherapy in two different studies conducted in multiple centers in four countries (Argentina, Brazil, Chile, U.S.) RhLF was administered at doses of 1.5 to 9 grams daily in two divided doses in cycles of 14 each with a 14 day gap.\nTumor size progression was monitored through CT scans and tumor markers where available. CT scans were performed at baseline and after each 8-week period once treatment was initiated, and also compared with a pre-baseline scan conducted prior to enrollment in the study. Tumor markers are measured every 4 weeks. Blood samples were collected to measure subclasses of circulating lymphocytes and NK cell activity. Plasma, serum and blood cell extract samples were collected to measure circulating IL-18, IL-1, IL-2, and IL-4, IL-5, IL-10, IL-12 and IFN-γ."}, "[5]": {"system": "GM-CSF", "experiment": "GM-CSF production in small intestine after oral rhLF (ELISA)", "type": "in vivo, mice", "conditions": "oral 300 mg/kg/day three days", "description": "Recombinant human lactoferrin or placebo were orally administered to mice, and the production of GM-CSF in the small intestine was measured.\nMice (5 animals per group) were treated for three days daily with 300 mg/kg/day of rhLF. For a control, mice were only administered the pharmaceutical carrier. Twenty-four hours following administration of the LF or placebo for 3 days, animals were and the small intestinal tissue was removed for further analysis. Small intestinal epithelium was homogenized using a lysis buffer consisting of PBS, 1% Nonidet P-40, 0.5% sodium deoxycholate, and 0.1% sodium dodecyl sulphate containing 10 μg/ml PhenylMetheylsulfonyl fluoride. Homogenate was centrifuged at 15,000 rpm for 10 minutes and the supernatant stored at −80 C. till it was tested for GM-CSF levels using an ELISA kit."}, "[6]": {"system": "circulating lymphocytes", "experiment": "Circulating lymphocytes after intratumoral rhLF in tumor-bearing mice (Example 18)", "type": "in vivo, C3H/HeJ mice", "description": "Normal C3H/HeJ mice were implanted with one of two mouse tumors following the methodology described in Example 17. Tumors used were SCCVII and RIF mouse tumor cell lines. Following establishment of the tumors in the mice, tumors were injected intratumorally daily for 4 days with 250 or 500 μg rhLF per dose or with vehicle control. Twenty four hours following the last intratumoral injection, animals were sacrificed and the blood examined for lymphocyte populations. The number of circulating lymphocytes were increased by 34% to 56% relative to the placebo treated control animals (Table 14)."}, "[7]": {"conditions": "oral 65 mg/kg rhLF versus 300 mg/kg bLF"}, "[8]": {"conditions": "oral 65 mg/kg/day for three days"}, "[9]": {"conditions": "oral 300 mg/kg rhLF versus 300 mg/kg bLF"}, "[10]": {"conditions": "oral 300 mg/kg/day for three days"}, "[11]": {"conditions": "oral, rhLF at both doses, bLF 300 mg/kg/day"}, "[12]": {"conditions": "intratumoral 250 or 500 μg per dose daily for 4 days, blood 24 h after last injection"}}}
{"molecule": "B1", "values": [{"measurement": "Inhibition Relative to Placebo", "setting": "[1]; both rhLF/Rad groups pooled (D/F)", "value": 67, "unit": "%"}, {"measurement": "Inhibition Relative to Placebo", "setting": "[1]; rhLF 200 mg/kg oral days 5-12 plus radiation 2 Gray on day 5", "value": 68, "unit": "%"}, {"measurement": "Inhibition Relative to Placebo", "setting": "[1]; rhLF 200 mg/kg oral days 5-12 plus radiation 2 Gray on day 8", "value": 66, "unit": "%"}, {"measurement": "Inhibition Relative to Placebo", "setting": "[1]; rhLF alone 200 mg/kg oral once daily days 5-12", "value": 54, "unit": "%"}, {"measurement": "increase in TGI over monotherapy with rhLF", "setting": "[1]; rhLF plus radiation, P<0.05", "value": 28, "unit": "%"}, {"measurement": "increase in TGI over monotherapy with radiation", "setting": "[1]; rhLF plus radiation, P=0.1207", "value": 15, "unit": "%"}, {"measurement": "TGI (%) Relative to Placebo", "setting": "[2]", "value": 33, "unit": "%"}, {"measurement": "IL-18 Intestinal Extract % Increase Over Control", "setting": "[3]; oral 65 mg/kg", "value": 725, "unit": "%"}, {"measurement": "IL-18 Serum % Increase Over Control", "setting": "[3]; oral 65 mg/kg", "value": 84, "unit": "%"}, {"measurement": "IL-18 Intestinal Extract % Increase Over Blf", "setting": "[3]; [7]", "value": 75, "unit": "%"}, {"measurement": "IL-18 Serum % Increase Over Blf", "setting": "[3]; [7]", "value": 94, "unit": "%"}, {"measurement": "IL-18 Intestinal Extract", "setting": "[3]; [8]", "value": "7,879 pg"}, {"measurement": "IL-18 Serum", "setting": "[3]; [8]", "value": 259, "unit": "pg"}, {"measurement": "IL-18 Intestinal Extract % Increase Over Control", "setting": "[3]; oral 300 mg/kg", "value": 775, "unit": "%"}, {"measurement": "IL-18 Serum % Increase Over Control", "setting": "[3]; oral 300 mg/kg", "value": 132, "unit": "%"}, {"measurement": "IL-18 Intestinal Extract % Increase Over Blf", "setting": "[3]; [9]", "value": 85, "unit": "%"}, {"measurement": "IL-18 Serum % Increase Over Blf", "setting": "[3]; [9]", "value": 145, "unit": "%"}, {"measurement": "IL-18 Intestinal Extract", "setting": "[3]; [10]", "value": "8,350 pg"}, {"measurement": "IL-18 Serum", "setting": "[3]; [10]", "value": 328, "unit": "pg"}, {"measurement": "effect on amount of IL-18 in the intestinal extract", "setting": "[3]; [11]", "value": "significantly enhanced"}, {"measurement": "effect on amount of IL-18 in the serum", "setting": "[3]; [11]", "value": "significantly enhanced"}, {"measurement": "Post Treatment 1 % Growth", "setting": "[4]; Patient # 007, Lung, 7.5 weeks, pretreatment 160% (5.5 weeks)", "value": "13% (7.5)"}, {"measurement": "Post Treatment 2 % Growth", "setting": "[4]; Patient # 007, Lung, 8.5 weeks", "value": "12% (8.5)"}, {"measurement": "Post Treatment 2 % Growth", "setting": "[4]; Patient # 102, Ovarian, 8.5 weeks", "value": "−7% (8.5)"}, {"measurement": "Post Treatment 1 % Growth", "setting": "[4]; Patient # 102, Ovarian, 10.5 weeks, pretreatment 30% (21 weeks)", "value": "−5% (10.5)"}, {"measurement": "Post Treatment 2 % Growth", "setting": "[4]; Patient # 104, Gastric, 7 weeks", "value": "−5% (7)"}, {"measurement": "Post Treatment 1 % Growth", "setting": "[4]; Patient # 104, Gastric, 10 weeks, pretreatment 25% (5.5 weeks)", "value": "10% (10)"}, {"measurement": "Post Treatment 1 % Growth", "setting": "[4]; Patient # 106, Melanoma, 11 weeks, pretreatment 24% (19 weeks)", "value": "−18% (11)"}, {"measurement": "Post Treatment 2 % Growth", "setting": "[4]; Patient # 204, Breast, 6.5 weeks", "value": "0% (6.5)"}, {"measurement": "Post Treatment 1 % Growth", "setting": "[4]; Patient # 204, Breast, 10 weeks, pretreatment 40% (8 weeks)", "value": "0% (10)"}, {"measurement": "patients with stable disease by the RECIST criteria at the first post-treatment scan", "setting": "[4]; nine of nineteen evaluable patients, oral 1.5 to 9 grams daily", "value": 47, "unit": "%"}, {"measurement": "GM-CSF Mean (SEM)", "setting": "[5]; 24 h after last dose", "value": "7.74 (0.19) pg"}, {"measurement": "GM-CSF Increase over Placebo", "setting": "[5]; p < 0.01", "value": "19.4% (p < 0.01)"}, {"measurement": "Number of Cells CD3+", "setting": "[6]; [12]", "value": 3291}, {"measurement": "Number of Cells CD4+", "setting": "[6]; [12]", "value": 2621}, {"measurement": "Number of Cells CD8+", "setting": "[6]; [12]", "value": 1054}, {"measurement": "Increase with rhLF, CD3+", "setting": "[6]; relative to placebo", "value": 56, "unit": "%"}, {"measurement": "Increase with rhLF, CD4+", "setting": "[6]; relative to placebo", "value": 46, "unit": "%"}, {"measurement": "Increase with rhLF, CD8+", "setting": "[6]; relative to placebo", "value": 34, "unit": "%"}]}
